Data on 89 variants can be found in IntAct's records for PubMed 29039417.

B1: BBSome complex member BBS5 (Homo sapiens), Q8N3I7 (parent)
chain: MSVLDALWEDRDVRFDLSAQQMKTRPGEVLIDCLDSIEDTKGNNGDRGRLLVTNLRILWHSLALSRVNVSVGYNCILNITTRTANSKLRGQTEALYILTKCNSTRFEFIFTNLVPGSPRLFTSVMAVHRAYETSKMYRDFKLRSALIQNKQLRLLPQEHVYDKINGVWNLSSDQGNLGTFFITNVRIVWHANMNDSFNVSIPYLQIRSIKIRDSKFGLALVIESSQQSGGYVLGFKIDPVEKLQESVKEINSLHKVYSASPIFGVDYEMEEKPQPLEALTVEQIQDDVEIDSDGHTDAFVAYFADGNKQQDREPVFSEELGLAIEKLKDGFTLQGLWEVMS
partner: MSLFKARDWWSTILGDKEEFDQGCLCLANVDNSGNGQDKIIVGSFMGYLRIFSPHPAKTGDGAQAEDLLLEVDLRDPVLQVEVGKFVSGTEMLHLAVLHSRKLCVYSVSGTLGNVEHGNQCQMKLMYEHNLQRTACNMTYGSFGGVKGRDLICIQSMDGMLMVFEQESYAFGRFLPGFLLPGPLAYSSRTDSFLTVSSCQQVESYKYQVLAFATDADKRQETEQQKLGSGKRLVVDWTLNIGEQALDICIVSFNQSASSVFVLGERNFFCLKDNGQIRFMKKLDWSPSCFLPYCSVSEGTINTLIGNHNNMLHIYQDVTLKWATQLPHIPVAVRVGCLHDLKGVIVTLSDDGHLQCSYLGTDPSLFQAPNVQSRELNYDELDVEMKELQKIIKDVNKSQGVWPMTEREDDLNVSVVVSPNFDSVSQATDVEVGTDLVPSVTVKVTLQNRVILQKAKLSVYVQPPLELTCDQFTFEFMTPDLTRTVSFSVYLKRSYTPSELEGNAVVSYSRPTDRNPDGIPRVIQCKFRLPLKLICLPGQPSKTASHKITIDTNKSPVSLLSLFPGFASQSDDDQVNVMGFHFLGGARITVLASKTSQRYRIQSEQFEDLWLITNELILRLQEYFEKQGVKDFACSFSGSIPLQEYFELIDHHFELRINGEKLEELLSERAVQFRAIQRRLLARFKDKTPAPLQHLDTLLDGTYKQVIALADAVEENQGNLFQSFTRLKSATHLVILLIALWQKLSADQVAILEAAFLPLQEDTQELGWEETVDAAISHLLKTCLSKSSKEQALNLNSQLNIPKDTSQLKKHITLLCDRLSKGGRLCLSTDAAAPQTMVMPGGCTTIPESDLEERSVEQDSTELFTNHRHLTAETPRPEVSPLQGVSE

Variants of B1 are the subject of the assay. The note with it: with pthb1_human BBS9, Q3SYG4.
For the variant S65A, the “effect of a mutation on the interaction” value is on record as “with no effect”.

In the case of L243E, the “effect of a mutation on the interaction” value was “with no effect”.

With N74E, the “effect of a mutation on the interaction” value is “with no effect”.

Regarding F108E, the “effect of a mutation on the interaction” value is listed as “disrupting interaction strength”.

On to F235K, for which the “effect of a mutation on the interaction” value is given as “disrupting interaction strength”.

For the variant I237E, the “effect of a mutation on the interaction” value is given as “with no effect”.

Consider S172E, for which the “effect of a mutation on the interaction” value is “with no effect”.

As for R212K, the “effect of a mutation on the interaction” value was “with no effect”.

For L7E, the “effect of a mutation on the interaction” value was “with no effect”.

On to L7K, for which the “effect of a mutation on the interaction” value is “with no effect”.

In the case of L77K, the “effect of a mutation on the interaction” value is reported as “with no effect”.

Regarding L77E, the “effect of a mutation on the interaction” value is “with no effect”.

On to N194E, for which the “effect of a mutation on the interaction” value is recorded as “with no effect”.

For the variant G178R, the “effect of a mutation on the interaction” value is “disrupting interaction strength”.

In the case of G90A, the “effect of a mutation on the interaction” value is on record as “with no effect”.

For I262E, the “effect of a mutation on the interaction” value is “with no effect”.

In the case of S200K, the “effect of a mutation on the interaction” value was “with no effect”.

Take H159A: the “effect of a mutation on the interaction” value is “with no effect”.

For the variant R105A, the “effect of a mutation on the interaction” value is “with no effect”.

Take D297A: the “effect of a mutation on the interaction” value is reported as “with no effect”.

Consider Y161E, for which the “effect of a mutation on the interaction” value is “with no effect”.

Take L62A: the “effect of a mutation on the interaction” value was “with no effect”.

For D10K, the “effect of a mutation on the interaction” value is “with no effect”.

Take F331S: the “effect of a mutation on the interaction” value is on record as “disrupting interaction strength”.

On to W337K, for which the “effect of a mutation on the interaction” value is “with no effect”.

On to I79A, for which the “effect of a mutation on the interaction” value was “with no effect”.

With R129A, the “effect of a mutation on the interaction” value is “with no effect”.

As to Q283K, the “effect of a mutation on the interaction” value was “with no effect”.

Take Q283A: the “effect of a mutation on the interaction” value is given as “with no effect”.

As for T133I, the “effect of a mutation on the interaction” value is listed as “disrupting interaction strength”.

Take Q20K: the “effect of a mutation on the interaction” value is recorded as “with no effect”.

For the variant K272E, the “effect of a mutation on the interaction” value is on record as “with no effect”.

For the variant Y131K, the “effect of a mutation on the interaction” value is “with no effect”.

Regarding L120E, the “effect of a mutation on the interaction” value is “with no effect”.

Regarding V67A, the “effect of a mutation on the interaction” value is listed as “with no effect”.

For K100E, the “effect of a mutation on the interaction” value was “with no effect”.

R47E: the “effect of a mutation on the interaction” value is given as “with no effect”.

For P115E, the “effect of a mutation on the interaction” value is given as “with no effect”.

For the variant N169E, the “effect of a mutation on the interaction” value is “with no effect”.

In the case of N169A, the “effect of a mutation on the interaction” value was “with no effect”.

As to S144A, the “effect of a mutation on the interaction” value is on record as “with no effect”.

With N176E, the “effect of a mutation on the interaction” value was “with no effect”.

Regarding F263A, the “effect of a mutation on the interaction” value is reported as “with no effect”.

In the case of G234K, the “effect of a mutation on the interaction” value is reported as “with no effect”.

Consider L30A, for which the “effect of a mutation on the interaction” value is reported as “with no effect”.

Consider L154E, for which the “effect of a mutation on the interaction” value is “with no effect”.

As to L154A, the “effect of a mutation on the interaction” value was “with no effect”.

With G306K, the “effect of a mutation on the interaction” value is listed as “with no effect”.

As for Y203E, the “effect of a mutation on the interaction” value is “with no effect”.

S117A: the “effect of a mutation on the interaction” value is recorded as “with no effect”.

In the case of K23A, the “effect of a mutation on the interaction” value is given as “with no effect”.

In the case of L142A, the “effect of a mutation on the interaction” value is recorded as “with no effect”.

R89E: the “effect of a mutation on the interaction” value is listed as “with no effect”.

Consider T53A, for which the “effect of a mutation on the interaction” value was “with no effect”.

Consider I57E, for which the “effect of a mutation on the interaction” value is on record as “with no effect”.

With L17A, the “effect of a mutation on the interaction” value is “disrupting interaction strength”.

Turning to E93A, the “effect of a mutation on the interaction” value is given as “with no effect”.

Take N192K: the “effect of a mutation on the interaction” value is recorded as “with no effect”.

In the case of N192A, the “effect of a mutation on the interaction” value is “with no effect”.

Turning to N54K, the “effect of a mutation on the interaction” value is given as “with no effect”.

For the variant D32E, the “effect of a mutation on the interaction” value is given as “with no effect”.

As to F316E, the “effect of a mutation on the interaction” value is listed as “with no effect”.

As for S208E, the “effect of a mutation on the interaction” value was “with no effect”.

On to G48E, for which the “effect of a mutation on the interaction” value is “with no effect”.

For the variant H128A, the “effect of a mutation on the interaction” value is reported as “with no effect”.

For the variant E245A, the “effect of a mutation on the interaction” value is “with no effect”.

In the case of P275K, the “effect of a mutation on the interaction” value is given as “with no effect”.

Turning to W189E, the “effect of a mutation on the interaction” value is listed as “with no effect”.

In the case of D311A, the “effect of a mutation on the interaction” value is “with no effect”.

With P314E, the “effect of a mutation on the interaction” value is listed as “with no effect”.

On to Q148E, for which the “effect of a mutation on the interaction” value is recorded as “with no effect”.

On to R25K, for which the “effect of a mutation on the interaction” value is “disrupting interaction strength”.

On to I97E, for which the “effect of a mutation on the interaction” value is recorded as “with no effect”.

As for T40A, the “effect of a mutation on the interaction” value was “with no effect”.

Consider C101E, for which the “effect of a mutation on the interaction” value was “with no effect”.

With I164A, the “effect of a mutation on the interaction” value is reported as “with no effect”.

Regarding F110E, the “effect of a mutation on the interaction” value was “with no effect”.

Consider R143E, for which the “effect of a mutation on the interaction” value is on record as “with no effect”.

In the case of R11E, the “effect of a mutation on the interaction” value is given as “disrupting interaction strength”.

Turning to M136E, the “effect of a mutation on the interaction” value is given as “with no effect”.

In the case of V124K, the “effect of a mutation on the interaction” value is recorded as “disrupting interaction strength”.

For the variant P239A, the “effect of a mutation on the interaction” value is recorded as “with no effect”.

In the case of E270K, the “effect of a mutation on the interaction” value is reported as “with no effect”.

D16A: the “effect of a mutation on the interaction” value was “with no effect”.

For V315E, the “effect of a mutation on the interaction” value is on record as “with no effect”.

For the variant K242A, the “effect of a mutation on the interaction” value is “with no effect”.

Take C75E: the “effect of a mutation on the interaction” value is given as “with no effect”.

With C75K, the “effect of a mutation on the interaction” value was “with no effect”.

As to T280E, the “effect of a mutation on the interaction” value is “with no effect”.
